Assay results taken from patent US6982170.

Columns and labels:
[1] = system: human wild type FGF-1 (fibroblast growth factor-1)
[2] = system: thrombin resistant mutant FGF-1R136K
[3] = molecular target: human wild type FGF-1 (fibroblast growth factor-1) (human) (UniProt P05230); assay: cell-based or functional assay

BAEC growth (cell number after 3 days) with thrombin-pretreated growth factor [3] [U/ml]	Substance	degradation of FGF-1 on Western blot (bands at 17 kD and 14 kD), no heparin [1]	degradation of FGF-1 on Western blot [2]	size of the cleavage band on Western blot [2]
–	thrombin	wild-type FGF-1 was degraded by even the lowest concentration of thrombin used (0.5 U/ml)	FGF-1R136K, even in the absence of heparin, was relatively resistant to thrombin degradation	the band detected upon treatment of FGF-1R136K mutant is slightly larger than the degradation band from wild type FGF-1
< 1	thrombin (enzyme)	–	–	–
